Experimental data published in paper PMC10809841, “Transferrin Is Up-Regulated by Microbes and Acts as a Negative Regulator of Immunity to Induce Intestinal Immunotolerance” (Research, 2024).

Experiments:
transferrin [1] = molecular target: T1, transferrin (UniProt P02787 20-698); experiment: SPR; BIAcore 2000; transferrin coupled at a CM5 sensor chip, CD14 flowed over; details in the Supplementary Materials (not shown); details: both partners purified
T1 construct: transferrin (serotransferrin), the iron transporter of serum; probably the mature plasma protein; also called Tf; WT-Tf
T1 sequence (P02787 20-698): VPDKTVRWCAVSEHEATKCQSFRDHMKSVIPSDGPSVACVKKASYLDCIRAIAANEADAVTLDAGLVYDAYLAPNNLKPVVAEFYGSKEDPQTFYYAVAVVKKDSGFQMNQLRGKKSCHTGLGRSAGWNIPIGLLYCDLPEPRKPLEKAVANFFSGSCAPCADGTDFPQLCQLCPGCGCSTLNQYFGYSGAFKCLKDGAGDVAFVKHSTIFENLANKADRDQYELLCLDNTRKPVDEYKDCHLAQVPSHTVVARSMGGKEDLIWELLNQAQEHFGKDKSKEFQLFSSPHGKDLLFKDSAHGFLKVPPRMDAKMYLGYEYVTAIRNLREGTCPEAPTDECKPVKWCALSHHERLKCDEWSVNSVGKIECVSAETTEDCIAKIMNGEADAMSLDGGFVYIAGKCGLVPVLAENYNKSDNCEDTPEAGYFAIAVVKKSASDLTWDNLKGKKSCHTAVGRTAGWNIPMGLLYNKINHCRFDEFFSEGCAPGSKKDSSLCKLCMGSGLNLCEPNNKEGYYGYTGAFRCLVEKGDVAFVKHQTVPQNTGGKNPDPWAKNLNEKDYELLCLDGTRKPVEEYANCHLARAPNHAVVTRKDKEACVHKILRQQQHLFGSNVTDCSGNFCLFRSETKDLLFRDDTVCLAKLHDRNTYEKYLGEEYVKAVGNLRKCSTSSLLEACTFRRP

transferrin [2] = molecular target: T1, transferrin; experiment: not stated; direct binding of TC6 (Fig. S9C to E); method not given

B1: cluster of differentiation 14 (CD14) (receptor, UniProt P08571 20-345, looked up)
chain: TTPEPCELDDEDFRCVCNFSEPQPDWSEAFQCVSAVEVEIHAGGLNLEPFLKRVDADADPRQYADTVKALRVRRLTVGAAQVPAQLLVGALRVLAYSRLKELTLEDLKITGTMPPLPLEATGLALSSLRLRNVSWATGRSWLAELQQWLKPGLKVLSIAQAHSPAFSCEQVRAFPALTSLDLSDNPGLGERGLMAALCPHKFPAIQNLALRNTGMETPTGVCAALAAAGVQPHSLDLSHNSLRATVNPSAPRCMWSSALNSLNLSFAGLEQVPKGLPAKLRVLDLSCNRLNRAPQPDELPEVDNLTLDGNPFLVPGTALPHEGSMN
notes: CD14, TLR coreceptor; isolated protein used in SPR and native gel; Probably a soluble recombinant CD14; also called WT-CD14; wild-type CD14
Kd (transferrin [1]): 14 nM
koff (transferrin [1]): 0.00033 s⁻¹
kon (transferrin [1]): 24000 M⁻¹ s⁻¹

B2: peptide TC6 (peptide)
peptide: TTPEPC
notes: designed peptide TC6; also called interference peptide TC6
Kd (transferrin [2]): 13 nM
